Results taken from patent US20200317768A1 (published 2020).
Residue numbers refer to the chain shown, from its start.

T1: human FcγRIIaH extracellular domain, C-terminal His-tag (human, UniProt P12318 34-217)
T1 construct: also called human FcγRIIa (type H); FcgRIIaH
T1 sequence: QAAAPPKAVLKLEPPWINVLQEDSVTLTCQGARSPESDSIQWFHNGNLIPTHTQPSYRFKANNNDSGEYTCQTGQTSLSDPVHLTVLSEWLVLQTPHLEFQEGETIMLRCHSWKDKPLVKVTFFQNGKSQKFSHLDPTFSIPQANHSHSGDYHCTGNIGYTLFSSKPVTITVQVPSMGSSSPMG

T2: human FcγRIIb extracellular domain, C-terminal His-tag (human, UniProt P31994 43-217)
T2 construct: also called human FcgRIIb; FcgRIIb
T2 sequence: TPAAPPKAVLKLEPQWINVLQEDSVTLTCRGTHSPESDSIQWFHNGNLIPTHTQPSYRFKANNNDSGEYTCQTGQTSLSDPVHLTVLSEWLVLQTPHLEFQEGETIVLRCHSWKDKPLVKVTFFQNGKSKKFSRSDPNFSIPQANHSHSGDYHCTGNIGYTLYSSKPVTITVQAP

T3: cynomolgus monkey FcγRIIb extracellular domain, C-terminal His-tag (cynomolgus monkey)
T3 construct: also called cyno FcγRIIb; cynoFcγRIIb
T3 chain: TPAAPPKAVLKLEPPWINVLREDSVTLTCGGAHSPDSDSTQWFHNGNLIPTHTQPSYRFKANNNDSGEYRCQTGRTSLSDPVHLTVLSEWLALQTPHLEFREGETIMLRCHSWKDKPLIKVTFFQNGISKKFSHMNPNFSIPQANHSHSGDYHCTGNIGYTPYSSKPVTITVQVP

T4: cynomolgus monkey FcγRIIa1 extracellular domain, C-terminal His-tag (cynomolgus monkey)
T4 construct: also called cyno FcγRIIa1; cynoFcgRIIa1
T4 chain: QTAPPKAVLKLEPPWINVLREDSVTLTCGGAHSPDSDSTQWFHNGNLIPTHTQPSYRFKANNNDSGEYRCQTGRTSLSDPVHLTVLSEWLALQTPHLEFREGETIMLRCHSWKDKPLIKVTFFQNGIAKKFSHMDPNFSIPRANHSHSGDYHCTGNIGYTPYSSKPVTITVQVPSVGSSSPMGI

T5: cynomolgus monkey FcγRIIa2 extracellular domain, C-terminal His-tag (cynomolgus monkey)
T5 construct: also called cyno FcγRIIa2; cynoFcgRIIa2
T5 chain: T4 chain with P95T, T121A, I127K, A128S, K130N, D135N, R142Q

T6: cynomolgus monkey FcγRIIIaS extracellular domain, C-terminal His-tag (cynomolgus monkey, UniProt Q8SPW2 21-206 at identity 1.00))
T6 construct: also called cyno FcγRIIIaS; cynoFcγRIIIaS
T6 chain: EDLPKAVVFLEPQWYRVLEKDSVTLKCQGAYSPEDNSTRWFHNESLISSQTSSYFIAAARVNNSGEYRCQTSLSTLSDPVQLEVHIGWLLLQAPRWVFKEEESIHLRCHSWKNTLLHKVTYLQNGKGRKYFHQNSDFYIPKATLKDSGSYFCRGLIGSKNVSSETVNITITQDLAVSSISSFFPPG

T7: cynomolgus monkey FcγRIIa3 extracellular domain, C-terminal His-tag (cynomolgus monkey)
T7 construct: also called cyno FcγRIIa3; cynoFcgRIIa3
T7 chain: T4 chain with P95T, T121A, A128S, H133P, D135N

B1: M103205H795-MY105/M103202L889-SK1 (antibody, human IgG1, kappa)
heavy: QVTLKESGPVLVKPTETLTLTCTVSGIDLSHDDISWVRQAPGKGLEWVGIISYAGSTYYASWAKGRLTISKDTSKNQVVLTMTNMDPVDTATYYCARGVPAYSHGGDLWGQGTLVTVSSASTKGPSVFPLAPSSKSTSGGTAALGCLVKDYFPEPVTVSWNSGALTSGVHTFPAVLQSSGLYSLSSVVTVPSSSLGTQTYICNVNHKPSNTKVDKKVEPKSCDKTHTCPPCPAPELLNGPVVFLFPPKPKDTLMISRTPEVTCVVVDVSEEDPEVKFNWYVDGVEVHNAKTKPREEQYNSTYRVVSVLTVLHQDWLNGKEYKCKVSNKALPAPIEKTISKAKGQPREPQVYTLPPSREEMTKNQVSLTCLVKGFYPSDIAVEWESNGQPENNYKTTPMVLDSDGSFFLYSKLTVDKSRWQQGNVFSCSVMHEALHNHYTQKSLSLSP
light: DIVMTQSPATLSLSPGERATLSCTSSQSVYHANWLSWFQQKPGQPPKLLIYWASTLAYGVPSRFSGSGSGTDFTLTISSLQPEDAATYYCAGGYGGGRYAFGQGTKVEIKRTVAAPSVFIFPPSDEQLKSGTASVVCLLNNFYPREAKVQWKVDNALQSGNSQESVTEQDSKDSTYSLSSTLTLSKADYEKHKVYACEVTHQGLSSPVTKSFNRGEC
notes: Substitutions introduced into M103205H795-SG1; expressed with M103202L889-SK1 as light chain
B2: M103205H795-MY197/M103202L889-SK1 (antibody, human IgG1, kappa)
heavy: B1 heavy with V241S, E270D, A332K
light: B1 light
notes: as for B1
B3: M103205H795-MY141/M103202L889-SK1 (antibody, human IgG1, kappa)
heavy: B1 heavy with V241S, S269A, E270H
light: B1 light
notes: as for B1
B4: M103205H795-MY147/M103202L889-SK1 (antibody, human IgG1, kappa)
heavy: B1 heavy with L237W, V241S
light: B1 light
notes: as for B1
B5: M103205H795-MY117/M103202L889-SK1 (antibody, human IgG1, kappa)
heavy: B1 heavy with L236W, V241S, S269A
light: B1 light
notes: as for B1
B6: M103205H795-MY115/M103202L889-SK1 (antibody, human IgG1, kappa)
heavy: B1 heavy with V241S, S269A
light: B1 light
notes: as for B1

Tests used:
Experiment in all cases: SPR (Biacore); KD of SG1 / KD of variant;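 further: relative to parent M103205H795-SG1 carrying the SG1 human heavy chain constant region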
[1] = biological target: T1, human FcγRIIaH extracellular domain, …
[2] = biological target: T2, human FcγRIIb extracellular domain, …
[3] = biological target: T3, cynomolgus monkey FcγRIIb extracellular …
[4] = biological target: T4, cynomolgus monkey FcγRIIa1 …
[5] = biological target: T5, cynomolgus monkey FcγRIIa2 …
[6] = biological target: T6, cynomolgus monkey FcγRIIIaS …
[7] = biological target: T7, cynomolgus monkey FcγRIIa3 …
[8] = biological target: T8, human FcγRIIIaV extracellular domain, C-terminal His-tag (human, UniProt P08637 17-208)
T8 construct: also called human FcgRIIIaV; FcgRIIIaV
T8 sequence (P08637 17-208 F176V): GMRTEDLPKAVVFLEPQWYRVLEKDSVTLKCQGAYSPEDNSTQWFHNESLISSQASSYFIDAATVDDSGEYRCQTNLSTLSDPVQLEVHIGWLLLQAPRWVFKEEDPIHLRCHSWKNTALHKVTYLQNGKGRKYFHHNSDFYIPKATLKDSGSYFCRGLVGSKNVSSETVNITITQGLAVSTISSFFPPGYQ

Binder	KD fold (SG1 = 1) [1]	KD fold (SG1 = 1) [2]	KD fold (SG1 = 1) [3]	KD fold (SG1 = 1) [4]	KD fold (SG1 = 1) [5]	KD fold (SG1 = 1) [6]	KD fold (SG1 = 1) [7]	KD fold (SG1 = 1) [8]
B1	0.5 fold	8.1 fold	4.6 fold	2.7 fold	5.7 fold	0.28 fold	13.1 fold	0.14 fold
B2	1.9 fold	11.8 fold	10.6 fold	5.5 fold	9.1 fold	0.17 fold	12.1 fold	0.08 fold
B3	0.8 fold	4.2 fold	1 fold	1.5 fold	1.8 fold	0.08 fold	0.9 fold	0.07 fold
B4	0.6 fold	5.5 fold	3.9 fold	1.5 fold	2.3 fold	0.07 fold	2.6 fold	0.07 fold
B5	0.8 fold	7.7 fold	1.8 fold	1.2 fold	1.6 fold	0.36 fold	1.7 fold	0.1 fold
B6	0.7 fold	14.4 fold	2.3 fold	1.4 fold	1.9 fold	0.42 fold	2.2 fold	0.22 fold
